Where no end group is shown, it is not given here. Side-chain parts run from the residue outwards. dermatan sulfate = dermatan sulfate, the glycan component of the peptidoglycan; BMPH = crosslinker coupling the Cys thiol to oxidized dermatan sulfate

Assay [1] addresses collagen (type and supplier not stated; Examples 11 and 12). In words: SPR (Biacore 2000, CM-3 chip), collagen immobilized, peptide in flow at 100 µM to 1.5 µM. A general note: Surface plasmon resonance follows binding to a sensor surface in real time, without labels.
Assay [2] concerns the target Type I fibrillar collagen (Chronolog, Havertown, Pa.). In words: plate binding assay on fibrillar collagen, biotin label detected with streptavidin-HRP, saturation curve fit.
For assay [3] the target is unchanged. In words: plate assay on fibrillar collagen, biotin labeled peptidoglycan detected with streptavidin-HRP, Abs 450 nm.
Assay [4] has the same target. In words: diffusion from fibrillar collagen coated plate at 37° C., loaded at 10 µM, biotin label detected with streptavidin-HRP.

What is called Kd is a measure of binding affinity in units of concentration. A lower Kd goes with a tighter complex. As to RRANAALKAGELYKSILYGC [peptide … (SILY)], the Kd in assay [1] turned out to be 1200 nM. In other words, the single-digit micromolar range.

B1: biotin labeled peptidoglycan DS-SILY4 (DS-SILY4-biotin) (peptide)
peptide: RRANAALKAGELYKSILYGC([BMPH-dermatan sulfate])
modifications: not fully specified (C-terminus); also: 4 SILY peptides per dermatan sulfate, biotin label on every peptide, position not given here
The EC50 (read off the curve) is the concentration giving half of the maximal effect. Low readings indicate a more potent agent, high ones a less potent agent. With B1, the Kd in assay [2] amounted to 118 nM. Also, the 50% effective concentration (EC50 (read off the curve)) in assay [3] turned out to be 100 nM.

B2: biotin labeled peptidoglycan DS-SILY18 (DS-SILY18-biotin) (peptide)
peptide: RRANAALKAGELYKSILYGC([BMPH-dermatan sulfate])
modifications: not fully specified (C-terminus); also: 18 SILY peptides per dermatan sulfate, 2 of them biotin labeled, biotin position not given here
For B2, the Kd in assay [2] amounted to 24 nM. Further, in assay [3], the EC50 (read off the curve) amounted to 20 nM. The amount remaining bound after 1 week of extensive rinsing (equivalent concentration) in assay [4] was found to be 10 nM.

For the origin of these results see patent US20130190246A1.
